First the molecules themselves.
B1: FCHO1 (parent)
chain: FSDPSQSDPETKDFWLNMAALTEA

Consider 94 variants from the supplement of paper PMC10567573.
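Note: lentivirally expressed fusions sorted by FACS into six bins by GFP to DsRed ratio, PSI derived from sequencing read proportions per bin multiplied by bin number.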

The variants in this data set derive from B1. The experiment in a line: protein stability index of a GFP-peptide fusion (GPS, HEK-293T) (PSI 1-6); higher = more stable. As to conditions: c terminus: a fixed tail appended.
On to FLDPSQSDPETKDFWLNMAALTEA, for which the protein stability index was 2.65.

Turning to FHDPSQSDPETKDFWLNMAALTEA, the protein stability index is 1.99. Regarding FADPSQSDPETKDFWLNMAALTEA, the protein stability index amounted to 1.7.

Consider FFDPSQSDPETKDFWLNMAALTEA, for which the protein stability index turned out to be 2.89.

Turning to FQDPSQSDPETKDFWLNMAALTEA, the protein stability index was 2.4. The same measure for FDDPSQSDPETKDFWLNMAALTEA: 4.53. Then FSDPSQSDPETKDFWLNMANLTEA, with 2.86; and FSDPSQSDPETKDFWLNMAMLTEA, with 2.85; and FSDPSQSDPETKDFWLNMAGLTEA, with 2.65.

Regarding FSDPSQSDPETKDFWLNMAKLTEA, the protein stability index was 2.63.

FSDPSQSDPETKDFWLNMASLTEA: the protein stability index was 2.94. The same measure for FSDPSQSDPETKDFWLNMAVLTEA: 2.19; for FSDPSQSDPETKDFWLNMAELTEA: 3.61; for FSDPSQSDPETKDFWLNMAALTQA: 2.86. The same measure for FSDPSQSDPETKDFWLNMAALTKA: 2.3; for FSDPSQSDPETKDFWLNMAALTSA: 2.23; for FSDPSQSDPETKDFWLNMAALTLA: 2.3. Consider FSDPSQSDPETKDFWLNMAALTMA, for which the protein stability index came to 2.08.

FSDPSQSDPETKDFWLNMAALTPA: the protein stability index was 2.33. FSDPSQSDPETKDFWLNMAALTCA: the protein stability index came out at 1.63. On to FSDPSQSDPETKDFWLNMAALTIA, for which the protein stability index was 1.9. Then FSDPSQKDPETKDFWLNMAALTEA, with 2.8. Then FSDPSQWDPETKDFWLNMAALTEA, with 2; and FSDPSQEDPETKDFWLNMAALTEA, with 3.69. Consider FSDPSQRDPETKDFWLNMAALTEA, for which the protein stability index was determined as 2.64.

For FSDPSQGDPETKDFWLNMAALTEA, the protein stability index was found to be 2.6. As to FSDPSQIDPETKDFWLNMAALTEA, the protein stability index came out at 2.38. Regarding FSDPSQPDPETKDFWLNMAALTEA, the protein stability index is 3.92. On to FSDPSQMDPETKDFWLNMAALTEA, for which the protein stability index was determined as 3.55. On to FSDPGQSDPETKDFWLNMAALTEA, for which the protein stability index was 2.66. With FSDPWQSDPETKDFWLNMAALTEA, the protein stability index came to 1.74.

Consider FSDPQQSDPETKDFWLNMAALTEA, for which the protein stability index was found to be 3.21.

Take FSDPYQSDPETKDFWLNMAALTEA: the protein stability index stood at 2.45.

With FSDPRQSDPETKDFWLNMAALTEA, the protein stability index came out at 2.21. Then FSDPHQSDPETKDFWLNMAALTEA, with 2.87; and FSDPCQSDPETKDFWLNMAALTEA, with 2.6; and FSDPSQSDPATKDFWLNMAALTEA, with 2.5.

As to FSDPSQSDPDTKDFWLNMAALTEA, the protein stability index worked out at 3.

Take FSDPSQSDPVTKDFWLNMAALTEA: the protein stability index worked out at 2.63. Then FSDPSQSDPGTKDFWLNMAALTEA, with 2.03; and FSDPSQSDPCTKDFWLNMAALTEA, with 2.06.

On to FSDPSQSDPETKDFWLNMAALTEH, for which the protein stability index came to 2.89. For FSDPSQSDPETKDFWLNMAALTEC, the protein stability index is 2.36.

Turning to FSDPSQSDPETKDFWLNMAALTEG, the protein stability index was 2.5. As to FSDPSQSDPETKDFWLNMAALTEY, the protein stability index was determined as 2.29. With FSDPSQSDPETKDFWLNMAALTEK, the protein stability index is 3.38.

In the case of FSDPSQSDPETKDFWLNMAALTEQ, the protein stability index is 3.27. Take FSDPSQSDPETKDFWLNMAALTEL: the protein stability index worked out at 2.67.

For the variant FSDPSQSDPETKDFWLNMAALTES, the protein stability index was 3.4. The same measure for FSDPSQSDPEAKDFWLNMAALTEA: 3.11; for FSDPSQSDPEVKDFWLNMAALTEA: 2.69; for FSDPSQSDPECKDFWLNMAALTEA: 2.92.

For FSDPSQSDPENKDFWLNMAALTEA, the protein stability index stood at 3.12. Then FSDPSQSDPEGKDFWLNMAALTEA, with 3.04. The same measure for FSDPSQSDPEMKDFWLNMAALTEA: 2.31.

FSDPSQSDPETKDFWMNMAALTEA: the protein stability index is 2.55. On to FSDPSQSDPETKDFWANMAALTEA, for which the protein stability index is 2.87. Then FSDPSQSDPETKDFWVNMAALTEA, with 2.22; and FSDPSQSDPETKDFWHNMAALTEA, with 2.3; and FSDPSQSDPETKDFWDNMAALTEA, with 5.04.

With FSDPSQSDPETKDFWGNMAALTEA, the protein stability index is 2.41. FSDPSQSDPETKDFWPNMAALTEA: the protein stability index is 4.08. On to FSDPSQSDPETKDFWFNMAALTEA, for which the protein stability index was 2.41. Then FSDPSQSDPETKDFWRNMAALTEA, with 2.21; and FSDPSQSDYETKDFWLNMAALTEA, with 2.65. As for FSDPSQSDKETKDFWLNMAALTEA, the protein stability index was 3.05. The same measure for FSDPSQSDHETKDFWLNMAALTEA: 2.73; for FSDPSQSDDETKDFWLNMAALTEA: 3.7. Then FSDPSQSDMETKDFWLNMAALTEA, with 3.39; and FSDPSQSDWETKDFWLNMAALTEA, with 2.4; and PSDPSQSDPETKDFWLNMAALTEA, with 4.8. Consider LSDPSQSDPETKDFWLNMAALTEA, for which the protein stability index was found to be 4.25. Then QSDPSQSDPETKDFWLNMAALTEA, with 4.72; and RSDPSQSDPETKDFWLNMAALTEA, with 3.73; and KSDPSQSDPETKDFWLNMAALTEA, with 4.42. Then WSDPSQSDPETKDFWLNMAALTEA, with 4.1. Then VSDPSQSDPETKDFWLNMAALTEA, with 4.86; and ESDPSQSDPETKDFWLNMAALTEA, with 4.97; and SSDPSQSDPETKDFWLNMAALTEA, with 4.74. For the variant FSDPSQSDPETPDFWLNMAALTEA, the protein stability index is 3.1. The same measure for FSDPSQSDPETEDFWLNMAALTEA: 3.6; for FSDPSQSDPETSDFWLNMAALTEA: 3.26; for FSDPSQSDPETMDFWLNMAALTEA: 3.07. In the case of FSDPSQSDPETDDFWLNMAALTEA, the protein stability index was found to be 4.39.

In the case of FSDPSQSDPETKDFWLNMWALTEA, the protein stability index was found to be 2.09.

As for FSDPSQSDPETKDFWLNMTALTEA, the protein stability index was 1.79. Then FSDPSQSDPETKDFWLNMLALTEA, with 2.44.

For FSDPSQSDPETKDFWLNMFALTEA, the protein stability index stood at 2.18.

On to FSDPSQSDPETKDFWLNMKALTEA, for which the protein stability index turned out to be 2.78. With FSDPSQSDPETKDFWLNMPALTEA, the protein stability index was found to be 2.7. Regarding FSDPSQSDPETKDFWLNMSALTEA, the protein stability index came to 2.29. With FSDPSQSDPETKDFWLNMDALTEA, the protein stability index amounted to 2.53. Then FSDPSFSDPETKDFWLNMAALTEA, with 2.65; and FSDPSYSDPETKDFWLNMAALTEA, with 1.81.
